Test results taken from the supplement of paper PMC5998384.

Legend:
HeLa Kyoto [1] = assay: solubility in G1/S (NP-40 vs SDS abundance) (log2 ratio); higher = more soluble; conditions: cell cycle stage: G1/S
HeLa Kyoto [2] = assay: melting temperature (median over replicates), in situ; higher = more thermally stable
HeLa Kyoto [3] = assay: thermal stability score vs G1/S (z-score of summed log2 fold changes over temperatures); higher = more thermally stable than in G1/S
HeLa Kyoto [4] = assay: solubility change mitosis vs G1/S (difference of NP-40 vs SDS log2 ratios) (log2 ratio difference); higher = more soluble in mitosis
[5] = cell cycle stage: early G1 (4.5 h after nocodazole release)
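Throughout, for melting temperature (median over replicates), in situ: HeLa Kyoto cells synchronized by double thymidine or nocodazole block, proteins quantified by TMT10plex mass spectrometry, three independent biological replicates.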
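Throughout, for solubility change mitosis vs G1/S (difference of NP-40 vs SDS log2 ratios): synchronized HeLa Kyoto cells (double thymidine block for G1/S, nocodazole release for mitosis), protein amounts in NP-40 versus SDS lysates quantified by mass spectrometry, three biological replicates.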
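Throughout, for solubility in G1/S (NP-40 vs SDS abundance): HeLa Kyoto cells arrested at G1/S by double thymidine block, proteins quantified by TMT10plex mass spectrometry in mild NP-40 versus SDS extracts, three biological replicates.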
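Throughout, for thermal stability score vs G1/S (z-score of summed log2 fold changes over temperatures): synchronized HeLa Kyoto cells, proteins quantified by TMT10plex mass spectrometry, three biological replicates, mitosis taken 0.5 h after nocodazole release, G1/S directly after double thymidine block.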

Sequence	solubility in G1/S (log2) (HeLa Kyoto [1])	melting temperature (HeLa Kyoto [2]; cell cycle stage: G1/S) [°C]	melting temperature (HeLa Kyoto [2]; cell cycle stage: mitosis) [°C]	thermal stability score (HeLa Kyoto [3]; [5])	thermal stability score (HeLa Kyoto [3]; cell cycle stage: mitosis)	solubility change mitosis (log2) (HeLa Kyoto [4])
MEQPPAPKSKLKKLSEDSLTKQPEEVFDVLEKLGEGSYGSVFKAIHKESGQVVAIKQVPVESDLQEIIKEISIMQQCDSPYVVKYYGSYFKNTDLWIVMEYCGAGSVSDIIRLRNKTLIEDEIATILKSTLKGLEYLHFMRKIHRDIKAGNILLNTEGHAKLADFGVAGQLTDTMAKRNTVIGTPFWMAPEVIQEIGYNCVADIWSLGITSIEMAEGKPPYADIHPMRAIFMIPTNPPPTFRKPELWSDDFTDFVKKCLVKNPEQRATATQLLQHPFIKNAKPVSILRDLITEAMEIKAKRHEEQQRELEEEEENSDEDELDSHTMVKTSVESVGTMRATSTMSEGAQTMIEHNSTMLESDLGTMVINSEDEEEEDGTMKRNATSPQVQRPSFMDYFDKQDFKNKSHENCNQNMHEPFPMSKNVFPDNWKVPQDGDFDFLKNLSLEELQMRLKALDPMMEREIEELRQRYTAKRQPILDAMDAKKRRQQNF [STK3]	0.0428	53	53.3	1.31	1.36	-0.13
MERKISRIHLVSEPSITHFLQVSWEKTLESGFVITLTDGHSAWTGTVSESEISQEADDMAMEKGKYVGELRKALLSGAGPADVYTFNFSKESCYFFFEKNLKDVSFRLGSFNLEKVENPAEVIRELICYCLDTIAENQAKNEHLQKENERLLRDWNDVQGRFEKCVSAKEALETDLYKRFILVLNEKKTKIRSLHNKLLNAAQEREKDIKQEGETAICSEMTADRDPVYDESTDEESENQTDLSGLASAAVSKDDSIISSLDVTDIAPSRKRRQRMQRNLGTEPKMAPQENQLQEKENSRPDSSLPETSKKEHISAENMSLETLRNSSPEDLFDEI [XRCC4]	0.0124	55.2	54.7	-0.551	-0.497	-0.0112
MERPQPDSMPQDLSEALKEATKEVHTQAENAEFMRNFQKGQVTRDGFKLVMASLYHIYVALEEEIERNKESPVFAPVYFPEELHRKAALEQDLAFWYGPRWQEVIPYTPAMQRYVKRLHEVGRTEPELLVAHAYTRYLGDLSGGQVLKKIAQKALDLPSSGEGLAFFTFPNIASATKFKQLYRSRMNSLEMTPAVRQRVIEEAKTAFLLNIQLFEELQELLTHDTKDQSPSRAPGLRQRASNKVQDSAPVETPRGKPPLNTRSQAPLLRWVLTLSFLVATVAVGLYAM [HMOX1]	0.553	52.6	53.9	0.266	0.9	-0.0689
MESAAALHFSRPASLLLLLLSLCALVSAQFIVVGPTDPILATVGENTTLRCHLSPEKNAEDMEVRWFRSQFSPAVFVYKGGRERTEEQMEEYRGRTTFVSKDISRGSVALVIHNITAQENGTYRCYFQEGRSYDEAILHLVVAGLGSKPLISMRGHEDGGIRLECISRGWYPKPLTVWRDPYGGVAPALKEVSMPDADGLFMVTTAVIIRDKSVRNMSCSINNTLLGQKKESVIFIPESFMPSVSPCAVALPIIVVILMIPIAVCIYWINKLQKEKKILSGEKEFERETREIALKELEKERVQKEEELQVKEKLQEELRWRRTFLHAVDVVLDPDTAHPDLFLSEDRRSVRRCPFRHLGESVPDNPERFDSQPCVLGRESFASGKHYWEVEVENVIEWTVGVCRDSVERKGEVLLIPQNGFWTLEMHKGQYRAVSSPDRILPLKESLCRVGVFLDYEAGDVSFYNMRDRSHIYTCPRSAFSVPVRPFFRLGCEDSPIFICPALTGANGVTVPEEGLTLHRVGTHQSL [BTN2A1]	-0.062	52.7	53.4	-0.399	-0.343	-0.101
MESGAYGAAKAGGSFDLRRFLTQPQVVARAVCLVFALIVFSCIYGEGYSNAHESKQMYCVFNRNEDACRYGSAIGVLAFLASAFFLVVDAYFPQISNATDRKYLVIGDLLFSALWTFLWFVGFCFLTNQWAVTNPKDVLVGADSVRAAITFSFFSIFSWGVLASLAYQRYKAGVDDFIQNYVDPTPDPNTAYASYPGASVDNYQQPPFTQNAETTEGYQPPPVY [SYNGR2]	0.192	54.9	56.3	-2	-3.51	-0.171
MESRKLISATDIQYSGSLLNSLNEQRGHGLFCDVTVIVEDRKFRAHKNILSASSTYFHQLFSVAGQVVELSFIRAEIFAEILNYIYSSKIVRVRSDLLDELIKSGQLLGVKFIAELGVPLSQVKSISGTAQDGNTEPLPPDSGDKNLVIQKSKDEAQDNGATIMPIITESFSLSAEDYEMKKIIVTDSDDDDDDVIFCSEILPTKETLPSNNTVAQVQSNPGPVAISDVAPSASNNSPPLTNITPTQKLPTPVNQATLSQTQGSEKLLVSSAPTHLTPNIILLNQTPLSTPPNVSSSLPNHMPSSINLLVQNQQTPNSAILTGNKANEEEEEEIIDDDDDTISSSPDSAVSNTSLVPQADTSQNTSFDGSLIQKMQIPTLLQEPLSNSLKISDIITRNTNDPGVGSKHLMEGQKIITLDTATEIEGLSTGCKVYANIGEDTYDIVIPVKDDPDEGEARLENEIPKTSGSEMANKRMKVKHDDHYELIVDGRVYYICIVCKRSYVCLTSLRRHFNIHSWEKKYPCRYCEKVFPLAEYRTKHEIHHTGERRYQCLACGKSFINYQFMSSHIKSVHSQDPSGDSKLYRLHPCRSLQIRQYAYLSDRSSTIPAMKDDGIGYKVDTGKEPPVGTTTSTQNKPMTWEDIFIQQENDSIFKQNVTDGSTEFEFIIPESY [ZBTB33]	-0.035	46.4	51.6	1.76	3.1	-0.162
MESYHKPDQQKLQALKDTANRLRISSIQATTAAGSGHPTSCCSAAEIMAVLFFHTMRYKSQDPRNPHNDRFVLSKGHAAPILYAVWAEAGFLAEAELLNLRKISSDLDGHPVPKQAFTDVATGSLGQGLGAACGMAYTGKYFDKASYRVYCLLGDGELSEGSVWEAMAFASIYKLDNLVAILDINRLGQSDPAPLQHQMDIYQKRCEAFGWHAIIVDGHSVEELCKAFGQAKHQPTAIIAKTFKGRGITGVEDKESWHGKPLPKNMAEQIIQEIYSQIQSKKKILATPPQEDAPSVDIANIRMPSLPSYKVGDKIATRKAYGQALAKLGHASDRIIALDGDTKNSTFSEIFKKEHPDRFIECYIAEQNMVSIAVGCATRNRTVPFCSTFAAFFTRAFDQIRMAAISESNINLCGSHCGVSIGEDGPSQMALEDLAMFRSVPTSTVFYPSDGVATEKAVELAANTKGICFIRTSRPENAIIYNNNEDFQVGQAKVVLKSKDDQVTVIGAGVTLHEALAAAELLKKEKINIRVLDPFTIKPLDRKLILDSARATKGRILTVEDHYYEGGIGEAVSSAVVGEPGITVTHLAVNRVPRSGKPAELLKMFGIDRDAIAQAVRGLITKA [TKT]	0.148	61.8	60.1	-3.36	-2.81	-0.0914
METESGNQEKVMEEESTEKKKEVEKKKRSRVKQVLADIAKQVDFWFGDANLHKDRFLREQIEKSRDGYVDISLLVSFNKMKKLTTDGKLIARALRSSAVVELDLEGTRIRRKKPLGERPKDEDERTVYVELLPKNVNHSWIERVFGKCGNVVYISIPHYKSTGDPKGFAFVEFETKEQAAKAIEFLNNPPEEAPRKPGIFPKTVKNKPIPALRVVEEKKKKKKKKGRMKKEDNIQAKEENMDTSNTSISKMKRSRPTSEGSDIESTEPQKQCSKKKKKRDRVEASSLPEVRTGKRKRSSSEDAESLAPRSKVKKIIQKDIIKEASEASKENRDIEISTEEEKDTGDLKDSSLLKTKRKHKKKHKERHKMGEEVIPLRVLSKSEWMDLKKEYLALQKASMASLKKTISQIKSESEMETDSGVPQNTGMKNEKTANREECRTQEKVNATGPQFVSGVIVKIISTEPLPGRKQVRDTLAAISEVLYVDLLEGDTECHARFKTPEDAQAVINAYTEINKKHCWKLEILSGDHEQRYWQKILVDRQAKLNQPREKKRGTEKLITKAEKIRLAKTQQASKHIRFSEYD [LARP7]	-0.53	48.8	50.1	0.456	1.1	0.194
METFDPTELPELLKLYYRRLFPYSQYYRWLNYGGVIKNYFQHREFSFTLKDDIYIRYQSFNNQSDLEKEMQKMNPYKIDIGAVYSHRPNQHNTVKLGAFQAQEKELVFDIDMTDYDDVRRCCSSADICPKCWTLMTMAIRIIDRALKEDFGFKHRLWVYSGRRGVHCWVCDESVRKLSSAVRSGIVEYLSLVKGGQDVKKKVHLSEKIHPFIRKSINIIKKYFEEYALVNQDILENKESWDKILALVPETIHDELQQSFQKSHNSLQRWEHLKKVASRYQNNIKNDKYGPWLEWEIMLQYCFPRLDINVSKGINHLLKSPFSVHPKTGRISVPIDLQKVDQFDPFTVPTISFICRELDAISTNEEEKEENEAESDVKHRTRDYKKTSLAPYVKVFEHFLENLDKSRKGELLKKSDLQKDF [PRIM1]	-0.144	48.8	49.6	0.672	1.37	-0.247
METPAAAAPAGSLFPSFLLLACGTLVAALLGAAHRLGLFYQLLHKVDKASVRHGGENVAAVLRAHGVRFIFTLVGGHISPLLVACEKLGIRVVDTRHEVTAVFAADAMARLSGTVGVAAVTAGPGLTNTVTAVKNAQMAQSPILLLGGAASTLLQNRGALQAVDQLSLFRPLCKFCVSVRRVRDIVPTLRAAMAAAQSGTPGPVFVELPVDVLYPYFMVQKEMVPAKPPKGLVGRVVSWYLENYLANLFAGAWEPQPEGPLPLDIPQASPQQVQRCVEILSRAKRPLMVLGSQALLTPTSADKLRAAVETLGVPCFLGGMARGLLGRNHPLHIRENRSAALKKADVIVLAGTVCDFRLSYGRVLSHSSKIIIVNRNREEMLLNSDIFWKPQEAVQGDVGSFVLKLVEGLQGQTWAPDWVEELREADRQKEQTFREKAAMPVAQHLNPVQVLQLVEETLPDNSILVVDGGDFVGTAAHLVQPRGPLRWLDPGAFGTLGVGAGFALGAKLCRPDAEVWCLFGDGAFGYSLIEFDTFVRHKIPVMALVGNDAGWTQISREQVPSLGSNVACGLAYTDYHKAAMGLGARGLLLSRENEDQVVKVLHDAQQQCRDGHPVVVNILIGRTDFRDGSIAV [ILVBL]	-0.101	53.2	53.7	0.852	-0.0354	-0.172
METVQLRNPPRRQLKKLDEDSLTKQPEEVFDVLEKLGEGSYGSVYKAIHKETGQIVAIKQVPVESDLQEIIKEISIMQQCDSPHVVKYYGSYFKNTDLWIVMEYCGAGSVSDIIRLRNKTLTEDEIATILQSTLKGLEYLHFMRKIHRDIKAGNILLNTEGHAKLADFGVAGQLTDTMAKRNTVIGTPFWMAPEVIQEIGYNCVADIWSLGITAIEMAEGKPPYADIHPMRAIFMIPTNPPPTFRKPELWSDNFTDFVKQCLVKSPEQRATATQLLQHPFVRSAKGVSILRDLINEAMDVKLKRQESQQREVDQDDEENSEEDEMDSGTMVRAVGDEMGTVRVASTMTDGANTMIEHDDTLPSQLGTMVINAEDEEEEGTMKRRDETMQPAKPSFLEYFEQKEKENQINSFGKSVPGPLKNSSDWKIPQDGDYEFLKSWTVEDLQKRLLALDPMMEQEIEEIRQKYQSKRQPILDAIEAKKRRQQNF [STK4]	0.283	51.8	51.5	0.936	0.0765	-0.0655
MEVAANCSLRVKRPLLDPRFEGYKLSLEPLPCYQLELDAAVAEVKLRDDQYTLEHMHAFGMYNYLHCDSWYQDSVYYIDTLGRIMNLTVMLDTALGKPREVFRLPTDLTACDNRLCASIHFSSSTWVTLSDGTGRLYVIGTGERGNSASEKWEIMFNEELGDPFIIIHSISLLNAEEHSIATLLLRIEKEELDMKGSGFYVSLEWVTISKKNQDNKKYEIIKRDILRGKSVPHYAAIEPDGNGLMIVSYKSLTFVQAGQDLEENMDEDISEKIKEPLYYWQQTEDDLTVTIRLPEDSTKEDIQIQFLPDHINIVLKDHQFLEGKLYSSIDHESSTWIIKESNSLEISLIKKNEGLTWPELVIGDKQGELIRDSAQCAAIAERLMHLTSEELNPNPDKEKPPCNAQELEECDIFFEESSSLCRFDGNTLKTTHVVNLGSNQYLFSVIVDPKEMPCFCLRHDVDALLWQPHSSKQDDMWEHIATFNALGYVQASKRDKKFFACAPNYSYAALCECLRRVFIYRQPAPMSTVLYNRKEGRQVGQVAKQQVASLETNDPILGFQATNERLFVLTTKNLFLIKVNTEN [NUDCD1]	-0.0356	51.5	52.4	0.569	0.543	-0.234
